{"source": "patent US6509447B1", "about": "“G protein chimeras and methods of screening compounds” (Glaxo Welcome Inc., priority 1997, dated 2003)", "molecules": {"B1": {"name": "Gpa1p: endogenous yeast Gα subunit, product of the GPA1 gene (protein, UniProt P08539 2-472, looked up)", "Guanine nucleotide-binding …": "GCTVSTQTIGDESDPFLQNKRANDVIEQSLQLEKQRDKNEIKLLLLGAGESGKSTVLKQLKLLHQGGFSHQERLQYAQVIWADAIQSMKILIIQARKLGIQLDCDDPINNKDLFACKRILLKAKALDYINASVAGGSDFLNDYVLKYSERYETRRRVQSTGRAKAAFDEDGNISNVKSDTDRDAETVTQNEDADRNNSSRINLQDICKDLNQEGDDQMFVRKTSREIQGQNRRNLIHEDIAKAIKQLWNNDKGIKQCFARSNEFQLEGSAAYYFDNIEKFASPNYVCTDEDILKGRIKTTGITETEFNIGSSKFKVLDAGGQRSERKKWIHCFEGITAVLFVLAMSEYDQMLFEDERVNRMHESIMLFDTLLNSKWFKDTPFILFLNKIDLFEEKVKSMPIRKYFPDYQGRVGDAEAGLKYFEKIFLSLNKTNKPIYVKRTCATDTQTMKFVLSAVTDLIIQQNLKKIGII"}}, "key": {"serotonin 5HT1A receptor": {"molecular_target": "T1, serotonin 5HT1A receptor (Homo sapiens, UniProt P08908)", "T1 construct": "expressed in transfected cells; host or cells: Saccharomyces cerevisiae strains MMY9 and MMY11, plasmid pDT-PGK-5-HT1A", "T1 sequence (P08908 1-422)": "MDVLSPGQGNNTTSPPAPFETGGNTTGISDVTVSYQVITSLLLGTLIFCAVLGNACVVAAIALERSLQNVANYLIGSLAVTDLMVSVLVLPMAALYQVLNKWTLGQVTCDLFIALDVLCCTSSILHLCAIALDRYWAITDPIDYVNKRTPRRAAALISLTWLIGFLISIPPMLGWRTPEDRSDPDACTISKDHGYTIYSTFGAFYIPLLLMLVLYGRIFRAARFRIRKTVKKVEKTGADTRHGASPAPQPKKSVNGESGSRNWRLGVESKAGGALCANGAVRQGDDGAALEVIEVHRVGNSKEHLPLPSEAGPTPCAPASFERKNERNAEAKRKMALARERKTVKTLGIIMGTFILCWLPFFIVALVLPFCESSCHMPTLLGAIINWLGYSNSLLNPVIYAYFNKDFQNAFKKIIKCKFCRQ", "experiment": "CPRG assay, MMY9 cells expressing 5-HT1A receptor plus Gα subunit", "format": "cell-based", "design": "key to coupling class where no EC50 could be fitted: weak activation insufficient to carry out curve-fitting was detected; NC: no coupling was detected", "procedure": "(§1) Assay for combined FUS1-lacZ and FUS1-HIS3 Expression. In vivo assays of reporter gene induction (CPRG assays) were carried out by suspending cells to 0.02 OD600 in 200 μl SC-glucose (2%) lacking tryptophan, uracil and histidine. This medium was supplemented with agonists, and additionally 10 mM 3-aminotriazole and the β-galactosidase (lacZ) substrate chlorophenolred-β-D-galactopyranoside (CPRG; Boehringer) to a concentration of 0.1 mg/ml. To visualise the colour change reaction, the medium was buffered to pH 7 with 0.1 M sodium phosphate. The assay was conducted in a 96-well microtitre plate format. Plates were incubated for 24 hours without agitation, and absorbance at 570 nm was determined using a Victor microtitre plate reader (Wallac). EC50 values (+/−standard error) were estimated by curve-fitting, using the Robosage software package.\n(§2) This experiment illustrates that, for certain receptors, the efficiency of coupling to the yeast pheromone response pathway can be enhanced by creating chimeras between yeast and mammalian Gα subunits. […] Agonist-dependent activation of FUS1-lacZ was determined by incubating cells in medium supplemented with the chromogenic, cell-permeant β-galacosidase (lacZ) substrate, chlorophenolred-β-D-galactopyranoside (CPRG; Boehringer Mannheim). […]"}, "[1]": {"system": "purinergic nucleotide P2Y2 receptor", "sequence (P41231 1-347 limits assumed)": "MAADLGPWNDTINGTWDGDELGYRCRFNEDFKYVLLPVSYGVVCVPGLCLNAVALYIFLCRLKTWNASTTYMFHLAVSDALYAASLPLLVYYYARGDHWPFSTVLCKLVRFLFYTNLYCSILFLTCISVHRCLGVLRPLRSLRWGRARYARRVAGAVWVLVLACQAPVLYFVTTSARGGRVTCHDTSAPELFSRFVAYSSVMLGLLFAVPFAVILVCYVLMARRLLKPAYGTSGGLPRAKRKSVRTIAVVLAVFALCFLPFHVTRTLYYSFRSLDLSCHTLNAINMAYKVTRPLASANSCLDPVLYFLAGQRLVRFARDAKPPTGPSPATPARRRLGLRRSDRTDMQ", "experiment": "CPRG assay, MMY9 cells expressing P2Y2 receptor plus Gα subunit", "format": "cell-based, human", "design": "key: weak activation insufficient to carry out curve-fitting was detected; NC: no coupling was detected", "procedure": "as §1, §2"}}}
{"molecule": "B1", "values": [{"measurement": "agonist-dependent induction of FUS1-LacZ / coupling, in words", "setting": "serotonin 5HT1A receptor", "result": "failed to signal"}, {"measurement": "coupling class where no EC50 could be fitted", "setting": "serotonin 5HT1A receptor", "result": "NC"}, {"measurement": "coupling class where no EC50 could be fitted", "setting": "[1]", "result": "weak"}]}
